In patent US20170174769A1 (Regeneron, published 2017):
Positions count from the first letter of the chain named. Names and notes keep the numbering of the source. Values belong to the binder of their own block, whether it stands above or below them.

Columns and labels:
[1] = target: T1, extracellular domain of human KLB expressed with C-terminal HA and hexahistidine tags (human, UniProt Q86Z14 1-996); assay: SPR, mAb captured, 25 C
T1 construct: also called hKLB-HA-6His; hKLB-HA-6his
T1 sequence: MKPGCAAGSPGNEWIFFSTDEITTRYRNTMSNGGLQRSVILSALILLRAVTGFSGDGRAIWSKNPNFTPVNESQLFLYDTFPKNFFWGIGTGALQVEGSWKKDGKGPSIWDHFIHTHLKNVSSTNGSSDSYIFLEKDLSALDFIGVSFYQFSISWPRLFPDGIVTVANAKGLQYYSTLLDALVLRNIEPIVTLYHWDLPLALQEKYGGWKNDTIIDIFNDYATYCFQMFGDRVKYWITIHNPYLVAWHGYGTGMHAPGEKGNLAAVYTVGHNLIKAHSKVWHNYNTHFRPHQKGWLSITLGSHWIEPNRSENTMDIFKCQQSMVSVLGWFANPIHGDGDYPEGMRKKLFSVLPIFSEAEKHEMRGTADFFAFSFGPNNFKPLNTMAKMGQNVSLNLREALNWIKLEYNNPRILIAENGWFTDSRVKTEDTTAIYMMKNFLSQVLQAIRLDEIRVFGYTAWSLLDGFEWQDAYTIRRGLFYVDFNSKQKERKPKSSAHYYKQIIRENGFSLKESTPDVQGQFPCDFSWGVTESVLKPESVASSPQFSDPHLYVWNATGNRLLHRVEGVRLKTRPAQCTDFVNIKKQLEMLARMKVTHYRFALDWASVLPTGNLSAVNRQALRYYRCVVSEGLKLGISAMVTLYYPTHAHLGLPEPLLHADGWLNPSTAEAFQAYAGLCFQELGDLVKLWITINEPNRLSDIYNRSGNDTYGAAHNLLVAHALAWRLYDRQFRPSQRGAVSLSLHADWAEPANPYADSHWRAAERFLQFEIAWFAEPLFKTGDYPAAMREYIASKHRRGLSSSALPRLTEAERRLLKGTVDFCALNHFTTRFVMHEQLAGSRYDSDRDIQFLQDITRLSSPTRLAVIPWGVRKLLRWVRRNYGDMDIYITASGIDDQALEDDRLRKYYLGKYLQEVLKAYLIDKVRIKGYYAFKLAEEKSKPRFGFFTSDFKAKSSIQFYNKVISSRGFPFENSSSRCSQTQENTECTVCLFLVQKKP
Procedure: (§1) Equilibrium dissociation constants (KD values) for human KLB or human FGFR1c binding to purified anti-KLB/FGFR1c monoclonal antibodies were determined using a real-time surface plasmon resonance biosensor using a Biacore T-200 or 4000 instrument. The Biacore sensor surface was derivatized by amine coupling with either a polyclonal rabbit anti-mouse antibody (GE, # BR-1008-38) or with a monoclonal mouse anti-human Fc antibody (GE, # BR-1008-39) to capture anti-KLB/FGFR1c monoclonal antibodies expressed with either a mouse Fc or a human Fc, respectively. All Biacore binding studies were performed in a buffer composed of 0.01M HEPES pH 7.4, 0.15M NaCl, 3mM EDTA, 0.05% v/v Surfactant P20 (HBST running buffer). […] Association of hKLB-HA-6His or hFGFR1c-V5-6His to the captured monoclonal antibody was monitored for 3.5 to 4 minutes and the dissociation of hKLB-HA-6His or hFGFR1c-V5-6His in HBST running buffer was monitored for 8-12 minutes. All the binding kinetics experiments were performed at 25° C. or 37° C. Kinetic association (kₐ) and dissociation (kd) rate constants were determined by fitting the real-time sensorgrams to a 1:1 binding model using Scrubber 2.0c curve fitting software. Binding dissociation equilibrium constants (KD) and dissociative half-lives (t½) were calculated from the kinetic rate constants as: […]

[2] = target: T2, extracellular domain of human FGFR1c expressed with C-terminal V5 and hexahistidine tags (human, UniProt P11362 22-376); assay: SPR, mAb captured, 25 C
T2 construct: also called hFGFR1c-V5-6His
T2 sequence: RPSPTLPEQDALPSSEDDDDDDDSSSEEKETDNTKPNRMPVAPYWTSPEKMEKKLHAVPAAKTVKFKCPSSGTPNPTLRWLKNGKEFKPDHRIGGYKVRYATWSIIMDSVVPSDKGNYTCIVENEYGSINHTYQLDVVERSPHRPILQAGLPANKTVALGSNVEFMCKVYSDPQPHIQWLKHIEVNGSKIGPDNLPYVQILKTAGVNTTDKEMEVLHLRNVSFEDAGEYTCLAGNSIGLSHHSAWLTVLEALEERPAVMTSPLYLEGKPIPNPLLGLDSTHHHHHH
Procedure: as §1

B1: H2aM8091N (antibody, V domains shown)
VH: QVQLVQSGADMKKPGASVKVSCKASGYTFTTYGINWVRQAPGQGLEWMGWISAYSGITNYAQSFQGRVTMTTDTSTSTAYMELRSLRSDDTAVYYCARGGYNWATGDYFDYWGQGTLVTVSS
VL: DIQMTQSPSTLSASIGDRVTITCRASQSISSWLAWYQQKPGKAPKFLIYKASSLASGVPSRFSGSGSGTEFTLTISSLQPDDFATYYCQQYDSYSPYTFGQGTKVEIK
notes: mouse IgG2 Fc (H2aM prefix); also called H2M8091N
20 nM hKLB-HA-6His Bind (RU) [1]: -2 RU
180 nM hFGFR1c-V5-6His Bind (RU) [2]: -0.8 RU

B4: H2aM8092N (antibody, V domains shown)
VH: QVQLQESGPGLVKPSETLSLTCTVSGGSISSYYWSWIRQPPGKGLDWIGHIYYSGTTYYNPSLKSRVSISLDTSKNQFSLKLSSVTAADTAVYYCARHLRGYSSGREFDYWGQGTLVTVSS
VL: DIQMTQSPSSLSASVGGRVSLTCRASQSIFSYLNWYQQKPGKAPKLLIYAASNLQSGVPSRFSGSGSGTDFTLTISSLQPEDFATYSCQQSYNIPYTFGQGTKLEIK
notes: mouse IgG2 Fc (H2aM prefix); also called H2M8092N
20 nM hKLB-HA-6His Bind (RU) [1]: 64.1 RU
Kd [1]: 0.383 nM
koff [1]: 5.56e-05 s⁻¹
kon [1]: 145000 M⁻¹ s⁻¹
t1/2 [1]: 3.46 h
180 nM hFGFR1c-V5-6His Bind (RU) [2]: -1.3 RU

B6: H4H8881P (antibody, V domains shown)
VH: QVQLVQSGAEVKKPGASVKVSCKASGYTFTSYVIHWVRQAPGQRLEWMGWSNAANGDTKYSQEFQDRVTFTRDTSASTAYMELSSLRSEDMAVYYCARWNWNYGAFDIWGQGTMVTVSS
VL: DIQMTQSPSSLSASVGDRVTITCQASQDINNYLHWYQQKSGKAPNLLIYDASILETGVPSRFSGSGSGTDFTFTISSLQPEDIATYYCQQYDNLPYTFGQGTKLEIK
notes: human IgG4 Fc (H4H prefix)
20 nM hKLB-HA-6His Bind (RU) [1]: 92.7 RU
Kd [1]: 0.124 nM
koff [1]: 0.000178 s⁻¹
kon [1]: 1.44e+06 M⁻¹ s⁻¹
t1/2 [1]: 1.08 h
180 nM hFGFR1c-V5-6His Bind (RU) [2]: 0.3 RU
binding result [2]: no binding (tested: 180 nM)

B7: H4H8878P (antibody, V domains shown)
VH: QVQLVESGGGVVQPGRSLRLSCAASGFTLNTYGMHWIRQTPGKGLEWVSLISYDETKEYYVDSVKGRFTISRDNSKNTLYLQMNSVRVEDTAVYYCAKPLTGSTDYYYGLDVWGQGTTVTVSS
VL: DIQMTQSPSYVSASVGDRVIITCRASQDISSWLAWYQQKPGKAPKLLIYVTSSLESGVPSRFSGSGSGTDFTLTISGLQPEDFATYYCQQVKSFPPTFGPGTKVDIK
notes: human IgG4 Fc (H4H prefix)
20 nM hKLB-HA-6His Bind (RU) [1]: 28.4 RU
Kd [1]: 1.25 nM
koff [1]: 0.000213 s⁻¹
kon [1]: 170000 M⁻¹ s⁻¹
t1/2 [1]: 0.905 h
180 nM hFGFR1c-V5-6His Bind (RU) [2]: 0.4 RU
binding result [2]: no binding (tested: 180 nM)

B8: H2aM8109N (antibody, V domains shown)
VH: QVQVVESGGGVVQPGRSLRLSCAASGFTFSSYGLHWVRQAPGKGLEWVAVIWHDGSHKYYADSVKGRFTISRDNSKNTLYLQMNSLRAEDTAVYYCARDGIPVAEDYYFYGMDVWGQGTTVTVSS
VL: DIQMTQSPSSLSASVGDRVTITCRASQGIRNDLGWYQQKPGKAPKRLIYAASSLQSGVPSRFSGSGSGTEFTLTISSLQPEDFAIYYCLQHNSLTFGGGTKVEIK
notes: mouse IgG2 Fc (H2aM prefix)
20 nM hKLB-HA-6His Bind (RU) [1]: 21.3 RU
Kd [1]: 4.44 nM
koff [1]: 0.000449 s⁻¹
kon [1]: 101000 M⁻¹ s⁻¹
t1/2 [1]: 0.428 h
180 nM hFGFR1c-V5-6His Bind (RU) [2]: -0.7 RU

B9: H4H8852P (antibody, V domains shown)
VH: QVQLQESGPGLVKPSETLSLTCTVSGGSISSYYWSWIRQPPGKGLEWIGYIYSSGIIKYNPSLKSRVTISADTSKNQFSLKLSSVTAADTAVYYCARHGIFGVMEYFQRWGQGTLVTVSS
VL: DIQMTQSPSSLSASIGDRVTITCQASQDIGNFLNWYQQKPGKAPTLLIYDASNMETGVPSRFSGSGSGTYFTFTISSLQPEDVATYYCQQYDNLPLTFGGGTKVEIK
notes: human IgG4 Fc (H4H prefix)
20 nM hKLB-HA-6His Bind (RU) [1]: -0.2 RU
180 nM hFGFR1c-V5-6His Bind (RU) [2]: 0 RU
binding result [2]: no binding (tested: 180 nM)

B10: H4H8856P (antibody, V domains shown)
VH: B9 VH with G49A, S53Y, I57T
VL: B9 VL with G30S, A51V, S67Y, Y70D, F73L, Q79K, V83I, L94I
notes: human IgG4 Fc (H4H prefix)
20 nM hKLB-HA-6His Bind (RU) [1]: -0.4 RU
180 nM hFGFR1c-V5-6His Bind (RU) [2]: 0.1 RU
binding result [2]: no binding (tested: 180 nM)

B12: H4H8837P (antibody, V domains shown)
VH: QVQLVESGGGVVQPGRSLRLSCAASGFTFNSYAMHWVRQAPGMGLEWVAVISSDGSNKYYADSVRGRFTVSRDNSKNTLYLQMNSLRSEDTAVYYCAKDGRGYSSFSHFGMDVWGQGTTVTVSS
VL: DIQMTQSPSTLSASVGDRVTITCRASQSIGSWLAWYQQKPGKAPKLLIYKTSSLESGVPSRFSGSGSGTEFTLTISSLQPDDFASYYCQQYNSYSFGQGTKVEIK
notes: human IgG4 Fc (H4H prefix)
20 nM hKLB-HA-6His Bind (RU) [1]: 63 RU
Kd [1]: 0.367 nM
koff [1]: 0.000128 s⁻¹
kon [1]: 350000 M⁻¹ s⁻¹
t1/2 [1]: 1.5 h
180 nM hFGFR1c-V5-6His Bind (RU) [2]: 0.2 RU
binding result [2]: no binding (tested: 180 nM)

B13: H2aM8093N (antibody, V domains shown)
VH: QVQLVQSGAEVKRPGSSVKVSCKASGDTFSTYAISWVRQAPGQGLEWMGGIIPVFGTTNYAQKFQDRVTITTDESTRTAYMELSSLRSEDTAVYYCAGIAGPDYWGQGTLVTVSS
VL: DIQMTQSPSSLSASVGDRVTITCRASQGIRNYLAWFQQKPGKAPKSLIYLATSLQSGVPSKFSGSGSGTDFTLTISSLQPEDFATYYCQQYYSYPWTFGQGTKVEIK
notes: mouse IgG2 Fc (H2aM prefix)
20 nM hKLB-HA-6His Bind (RU) [1]: 147 RU
Kd [1]: 0.218 nM
koff [1]: 9.8e-05 s⁻¹
kon [1]: 449000 M⁻¹ s⁻¹
t1/2 [1]: 1.96 h
180 nM hFGFR1c-V5-6His Bind (RU) [2]: -1.2 RU

Further lines, results first:

20 nM hKLB-HA-6His Bind (RU) [1]: 77.6 RU
Kd [1]: 0.11 nM
koff [1]: 5.02e-05 s⁻¹
kon [1]: 455000 M⁻¹ s⁻¹
t1/2 [1]: 3.83 h
180 nM hFGFR1c-V5-6His Bind (RU) [2]: -1.8 RU
B2: H1M8115N (antibody, V domains shown)
VH: QVQLVQSGAEVKKPGSSVKVSCKASGGTFSTYEISWVRQAPGQGLEWMGGIIPVFGTTHYAQKFQDSVTITTDESTGTAFMELSSLKSEDTAVYYCARGGAGGDNWGQGTLVTVSS
VL: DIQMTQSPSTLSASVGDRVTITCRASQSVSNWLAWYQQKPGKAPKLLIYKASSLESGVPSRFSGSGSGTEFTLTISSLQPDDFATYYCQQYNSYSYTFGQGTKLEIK
notes: H1M Fc prefix (mouse Fc)

20 nM hKLB-HA-6His Bind (RU) [1]: 68.1 RU
Kd [1]: 0.64 nM
koff [1]: 0.000287 s⁻¹
kon [1]: 448000 M⁻¹ s⁻¹
t1/2 [1]: 0.672 h
180 nM hFGFR1c-V5-6His Bind (RU) [2]: 0.4 RU
binding result [2]: no binding (tested: 180 nM)
B3: H4H8880P (antibody, V domains shown)
VH: EVQLVESGGGVVQPGGSLRLSCAASGFTFSLYAMSWVRQAPGKGLEWVSAISGSAHGAYYADSVKGRFTISRDNSKNSLYLQMNSLRAEDTAIYYCAKDLVIAVAGTFDYWGQGTLVTVSS
VL: DIQMTQSPSSLSASVGDRVTITCRASQIISTYLNWYQQKPGKAPKILIYTASSLKSGVPSRFSGSGSGTDFTLTISSLQPEDFATYYCQQTYSSPRFTFGPGTKVDIK
notes: human IgG4 Fc (H4H prefix)

20 nM hKLB-HA-6His Bind (RU) [1]: -0.2 RU
180 nM hFGFR1c-V5-6His Bind (RU) [2]: 5.8 RU
B5: H2aM8832N (antibody, V domains shown)
VH: QVQLVESGGGVVQPGRSLRLSCAASGFTFSRYGMHWVRQAPGKGLEWVAVIWYDGTNKYYEDSLKGRFTISRDNSKNTLYLQMNSLRAEDSAVYYCARDQGKYIDYWGQGTLVTVSS
VL: AIQMTQSPSSLSASVGDRVTITCRTSQDIRNDLGWYQQKPGKVPNLLIYAASTLQSGVPSRFSGSGSGTDFTLTISSLQPEDFATYYCLQDYNYPFTFGPGTKVDIK
notes: mouse IgG2 Fc (H2aM prefix)

20 nM hKLB-HA-6His Bind (RU) [1]: -0.7 RU
180 nM hFGFR1c-V5-6His Bind (RU) [2]: 0.4 RU
B11: H4H8871P (antibody, V domains shown)
VH: B9 VH with G27A
VL: B9 VL with Q37H, S63R, T74I
notes: human IgG4 Fc (H4H prefix)
